The values that follow come from PMC8440430 (Current biology : CB, 2021).

The target in one assay is His6-RIT1 (human, UniProt Q92963 1-219). In words: pull-down.
Assay [1] addresses FLAG-RIT1 protein (full-length recombinant RIT1) (human, UniProt Q92963 1-219). Kind of assay: pull-down.
Assay [2] deals with MAD2 WT (recombinant, TEV-cleaved) (human, UniProt Q13257 1-205). In words: SEC.
The target in the next assay is His6-MAD2 (human, UniProt Q13257 1-205). Kind of assay: pull-down.

Sequence of His6-RIT1 (Q92963 whole entry): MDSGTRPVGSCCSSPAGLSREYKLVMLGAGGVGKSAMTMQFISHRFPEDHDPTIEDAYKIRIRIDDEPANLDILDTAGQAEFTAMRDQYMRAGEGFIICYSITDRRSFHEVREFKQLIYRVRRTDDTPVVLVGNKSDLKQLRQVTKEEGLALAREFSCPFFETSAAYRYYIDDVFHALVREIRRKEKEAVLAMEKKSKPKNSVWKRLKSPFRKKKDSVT
Sequence of FLAG-RIT1 protein (full-length recombinant RIT1) (Q92963 whole entry): as above

B1: GST-RGL3 RBD (604-703) (domain or fragment, UniProt Q3MIN7 604-703, looked up)
chain: IPLPAQQSSEARVIRVSIDNDHGNLYRSILLTSQDKAPSVVRRALQKHNVPQPWACDYQLFQVLPGDRVLLIPDNANVFYAMSPVAPRDFMLRRKEGTRN
With B1, in the assay with His6-RIT1, the binding result is listed as “binds”.

B2: GST-MAD2 Loop-less (LL) (natural protein, human)
chain: MALQLSREQGITLRGSAEIVAEFFSFGINSILYQRGIYPSETFTRVQKYGLTLLVTTDLELIKYLNNVVEQLKDWLYKCSVQKLVVVISNIESGEVLERWQFDIECDKGSGEKSQKAIQDEIRSVIRQITATVTFLPLLEVSCSFDLLIYTDKDLVVPEKWEESGPQFITNSEEVRLRSFTTTIHKVNSMVAYKIPVND
As to B2, the binding result in assay [1] is recorded as “binds”.
In the case of SVWKRLKSPFRKKKD (peptide, UniProt Q92963 202-216, looked up) [RIT1 (202-216) peptide], in assay [2], the binding result was “binds”.
With EHQKAWALNLNGFDVEEAKILRLSGKPQ (domain or fragment, UniProt Q12834 111-138, looked up) [GST-CDC20 111-138], the binding result with His6-MAD2 is recorded as “binds”.
